In patent US20230272055A1, “ANTI-MUTANT CALRETICULIN (CALR) ANTIBODIES AND USES THEREOF” (Incyte Corporation, priority 2021, published 2023):

System: BaF3 cells expressing MPL/mutCALR Type 1
Assay: Example 16 inhibition of cell proliferation, CellTiter-Glo 72 hours
Format: cell-based
Procedure: The ability of the five antibodies shown here to inhibit cell proliferation was tested. Inhibition of cell proliferation was assessed using engineered BaF3 cells expressing MPL/mutCALR Type 1. Cells were plated at 5,000 cells per well in RPMI 1640+2% FBS, antibodies were added and incubated for 72 hours, followed by assessment of cell viability using the CellTiter-Glo Luminescent Cell Viability Assay (Promega, Madison, Wis.) and Top Count (Perkin Elmer, Boston, Mass.) or Pherastar (BMG Labtech, Ortenberg, Germany) for luminescence quantification. […] The data shown in FIGS. 21A and 21B were compiled from different experiments.

B1: AB4: anti-mutCALR antibody including VH and VL regions of antibody 8B2-H6 from WO2016087514 fused to human constant regions (antibody)
heavy: EVQLKQSGPELVKTGASVKISCKASGYSFTGYYIHWVKQSHGKSLEWIGYISCYNGASSYNQKFKGKATFTVDTSSSTAYMQFNSLTSGDSAVYYCASSMDYWGQGTSVTVSSASTKGPSVFPLAPSKSTSGGTAALGCLVKDYFPEPVTVSWNSGALTSGVHTFPAVLQSSGLYSLSSVVTVPSSSLGTQTYICNVNHKPSNTKVDKKVEPKSCDKTHTCPPCPAPELLGGPSVFLFPPKPKDTLMISRTPEVCVVVDVSHEDPEVKFNWYVDGVEVHNAKTKPREEQYNSTYRVVSVLTVLHQDWLNGKEYKCKVSNKALPAPIEKTISKAKGQPREPQVYTLPPSREEMTKNQVSLTCLVKGFYPSDIAVEWESNGQPNNYKTTPPVLDSDGSFFLYSKLTVDKSRWQQGNVFSCSVMHEALHNHYTQKSLSLSPG
light: DVVMTQTPLTLSVTIGQPASISCKSSQSLLDSDGKTYLNWLLQRPGQSPKRLIYLVSKLDSGVPDRFTGSGSGTDFTLKISRVEAEDLGVYHCWQGTHFPYTFGGGTKLEIKRTVAAPSVFIFPPSDQLKSGTASVVCLLNNFYPREAKVQWKVDNALQSGNSQESVTEQDSKDSTYSLSSTLTLSKADYEKHKVYACEVTHQGLSSPVTKSFNRGEC
inhibition of cell proliferation (72 hours, FIG. 21B, Table 16): no functional activity | IC50 for anti-mutCALR antibody mediated inhibition of cell proliferation (BaF3 cells expressing MPL/mutCALR Type 1, 72 hours, CellTiter-Glo): >60 µg/mL
